The values below come from patent US20220402989A1.

Where two headings read alike, the source gives them in different places.

In assay [1] the target is IL2Rβ/γ receptor (low/medium affinity IL2 receptor) on YT/STAT5-Luc cells with IL2Rα knocked out (human) (UniProt P14784). Kind of assay: cell-based or functional assay.
Assay [2] concerns the target IL2Rα/β/γ receptor (high affinity IL2 receptor) on YT/STAT5-Luc cells expressing endogenous or over-expressed human IL2Rα (human) (UniProt P01589). Kind of assay: cell-based or functional assay.
For assay [3], the target named is human PD1 (amino acids M1-L288 of NP_005009.2 with a 2Q=>E mutation) stably expressed on engineered reporter cells (human) (UniProt Q15116). As to the kind of experiment: cell-based or functional assay.
Assay [4] addresses IL2Rα/β/γ receptor (high affinity IL2 receptor) on YT/STAT5-Luc cells expressing endogenous or over-expressed human IL2Rα (human) (UniProt P01589). As to the kind of experiment: flow cytometry on YT/STAT5-Luc/IL2Ra OE (CD25 OE/PD1 OE) cells, AF647 anti-human IgG secondary, gMFI on a log axis.
The target in assay [5] is IL2Rβ/γ receptor (low/medium affinity IL2 receptor) on YT/STAT5-Luc cells with IL2Rα knocked out (human) (UniProt P14784). Kind of assay: flow cytometry, YT/STAT5-Luc CD25 KO/PD1 OE cells, AF647 anti-human IgG secondary.
Assay [6] addresses IL2Rα/β/γ receptor (high affinity IL2 receptor) on YT/STAT5-Luc cells expressing endogenous or over-expressed human IL2Rα (human) (UniProt P01589). As to the kind of experiment: flow cytometry, YT/STAT5-Luc CD25 OE/PD1 OE cells, AF647 anti-human IgG secondary.
The target in assay [7] is IL2Rβ/γ receptor (low/medium affinity IL2 receptor) on YT/STAT5-Luc cells with IL2Rα knocked out (human) (UniProt P14784). Kind of assay: cell-based or functional assay. The source holds these as a separate data set.
Assay [8] addresses IL2Rα/β/γ receptor (high affinity IL2 receptor) on YT/STAT5-Luc cells expressing endogenous or over-expressed human IL2Rα (human) (UniProt P01589). Kind of assay: cell-based or functional assay. This is another data set of the same source.

On to IL2-Fc (Fc fusion), for which, in assay [1], the EC50, STAT5-Luc IL2 reporter assay, YT/Stat5-Luc/IL2Rα KO came to 1.33 nM; the EC50, STAT5-Luc IL2 reporter assay, YT/Stat5-Luc/IL2Rα KO/hPD1 was found to be 0.442 nM; the Fold induction, STAT5-Luc IL2 reporter assay, YT/Stat5-Luc/IL2Rα KO amounted to 5.4 fold; the Fold induction, STAT5-Luc IL2 reporter assay, YT/Stat5-Luc/IL2Rα KO/hPD1 amounted to 3.87 fold. In addition, in assay [2], the EC50, STAT5-Luc IL2 reporter assay, YT/Stat5-Luc came to 0.402 nM; the EC50, STAT5-Luc IL2 reporter assay, YT/Stat5-Luc/hIL2Rα is 0.0241 nM; the EC50, STAT5-Luc IL2 reporter assay, YT/Stat5-Luc/hIL2Rα/hPD1 is 0.0232 nM; the EC50, STAT5-Luc IL2 reporter assay, YT/Stat5-Luc/hPD1 is 0.392 nM. In assay [2], this substance gave a Fold induction, STAT5-Luc IL2 reporter assay, YT/Stat5-Luc of 4.96 fold; a Fold induction, STAT5-Luc IL2 reporter assay, YT/Stat5-Luc/hIL2Rα of 5.49 fold; a Fold induction, STAT5-Luc IL2 reporter assay, YT/Stat5-Luc/hIL2Rα/hPD1 of 3.06 fold; a Fold induction, STAT5-Luc IL2 reporter assay, YT/Stat5-Luc/hPD1 of 7.97 fold.
The substance Isotype control 1 (antibody) returned a Fold induction, AP1-Luc PD1 antagonistic assay in assay [3] of 1.13 fold.
The same measure, in the same setting: next, Isotype control 2 (antibody): 1.2 fold.
In assay [1], “Isotype control (IL2 reporter assay, Tables 8 and 9) (antibody)” had a Fold induction, STAT5-Luc IL2 reporter assay, YT/Stat5-Luc/IL2Rα KO of 1.12 fold and a Fold induction, STAT5-Luc IL2 reporter assay, YT/Stat5-Luc/IL2Rα KO/hPD1 of 1.06 fold. For the same substance, in assay [2], the Fold induction, STAT5-Luc IL2 reporter assay, YT/Stat5-Luc was found to be 1.07 fold; the Fold induction, STAT5-Luc IL2 reporter assay, YT/Stat5-Luc/hIL2Rα amounted to 1.07 fold; the Fold induction, STAT5-Luc IL2 reporter assay, YT/Stat5-Luc/hIL2Rα/hPD1 came to 1 fold; the Fold induction, STAT5-Luc IL2 reporter assay, YT/Stat5-Luc/hPD1 was determined as 1.08 fold.
As for Isotype-IL2-IL2Ra, the Max Fold induction, STAT5-Luc IL2 reporter assay, CD25 KO/PD1 OE in assay [1] was found to be 1.25 fold. Moreover, in assay [2], the EC50 (M), STAT5-Luc IL2 reporter assay, CD25 OE/PD1 OE came to 1.41e-09 M and the Max Fold induction, STAT5-Luc IL2 reporter assay, CD25 OE/PD1 OE was 7.78 fold.
Substance REGN9903 (isotype-IL2Rα-IL2 control) had a Max Fold induction, STAT5-Luc IL2 reporter assay, CD25 KO/PD1 OE in assay [1] of 4.37 fold. Moreover, in assay [2], the EC50 (M), STAT5-Luc IL2 reporter assay, CD25 OE/PD1 OE came out at 3.31e-10 M and the Max Fold induction, STAT5-Luc IL2 reporter assay, CD25 OE/PD1 OE is 7 fold.
On to REGN9904 (non-targeted IL2Rα-IL2), for which, in assay [4], the EC50 (read off the curve) turned out to be 10 nM. In assay [5], this substance returned a Fold induction (highest gMFI relative to gMFI without antibody) of 1.7 fold and a Max gMFI of 3990 gMFI. In assay [6], this substance had a Fold induction (highest gMFI relative to gMFI without antibody) of 33.1 fold and a Max gMFI of 77600 gMFI. In assay [7], this substance registered a Max Fold induction, STAT5-Luc IL2 reporter assay, CD25 KO/PD1 OE of 3.24 fold. In assay [8], this substance returned an EC50 (M), STAT5-Luc IL2 reporter assay, CD25 OE/PD1 OE of 7.69e-10 M and a Max Fold induction, STAT5-Luc IL2 reporter assay, CD25 OE/PD1 OE of 4.57 fold. In assay [1], the Fold induction, STAT5-Luc IL2 reporter assay, YT/Stat5-Luc/IL2Rα KO came to 2.62 fold and the Fold induction, STAT5-Luc IL2 reporter assay, YT/Stat5-Luc/IL2Rα KO/hPD1 was 2.59 fold. In assay [2], this substance showed an EC50, PD1 competition STAT5-Luc assay, YT/STAT5-Luc/hIL2Rα/hPD1, no antibody ('-') of 0.703 nM; an EC50, PD1 competition STAT5-Luc assay, YT/STAT5-Luc/hIL2Rα/hPD1, with Comp 1 of 0.918 nM; an EC50, PD1 competition STAT5-Luc assay, YT/STAT5-Luc/hIL2Rα/hPD1, with Comp 2 of 0.938 nM; an EC50, PD1 competition STAT5-Luc assay, YT/STAT5-Luc/hIL2Rα/hPD1, with REGN2810 of 0.651 nM. In assay [2], this substance registered an EC50, PD1 competition STAT5-Luc assay, YT/STAT5-Luc/hIL2Rα/hPD1, with isotype control of 0.791 nM; an EC50, STAT5-Luc IL2 reporter assay, YT/Stat5-Luc/hIL2Rα of 1.63 nM; an EC50, STAT5-Luc IL2 reporter assay, YT/Stat5-Luc/hIL2Rα/hPD1 of 0.971 nM; a Fold induction, STAT5-Luc IL2 reporter assay, YT/Stat5-Luc of 3.21 fold. In assay [2], this substance registered a Fold induction, STAT5-Luc IL2 reporter assay, YT/Stat5-Luc/hIL2Rα of 4.87 fold; a Fold induction, STAT5-Luc IL2 reporter assay, YT/Stat5-Luc/hIL2Rα/hPD1 of 2.77 fold; a Fold induction, STAT5-Luc IL2 reporter assay, YT/Stat5-Luc/hPD1 of 4.52 fold. In addition, in assay [3], the Fold induction, AP1-Luc PD1 antagonistic assay was determined as 1.08 fold.
Regarding REGN10597, in assay [7], the EC50 (M), STAT5-Luc IL2 reporter assay, CD25 KO/PD1 OE was found to be 8.38e-11 M and the Max Fold induction, STAT5-Luc IL2 reporter assay, CD25 KO/PD1 OE worked out at 4.36 fold. In assay [8], this substance displayed an EC50 (M), STAT5-Luc IL2 reporter assay, CD25 OE/PD1 OE of 3.71e-11 M and a Max Fold induction, STAT5-Luc IL2 reporter assay, CD25 OE/PD1 OE of 5.1 fold. In assay [1], this substance yielded an EC50 (M), STAT5-Luc IL2 reporter assay, CD25 KO/PD1 OE of 5.78e-11 M; an EC50, STAT5-Luc IL2 reporter assay, YT/Stat5-Luc/IL2Rα KO/hPD1 of 0.191 nM; a Fold induction, STAT5-Luc IL2 reporter assay, YT/Stat5-Luc/IL2Rα KO of 2.85 fold; a Fold induction, STAT5-Luc IL2 reporter assay, YT/Stat5-Luc/IL2Rα KO/hPD1 of 3.54 fold. The Max Fold induction, STAT5-Luc IL2 reporter assay, CD25 KO/PD1 OE in assay [1] stood at 5.72 fold. In assay [2], this substance came in with an EC50 (M), STAT5-Luc IL2 reporter assay, CD25 OE/PD1 OE of 3.3e-11 M; an EC50, STAT5-Luc IL2 reporter assay, YT/Stat5-Luc/hIL2Rα of 0.848 nM; an EC50, STAT5-Luc IL2 reporter assay, YT/Stat5-Luc/hIL2Rα/hPD1 of 0.0353 nM; an EC50, STAT5-Luc IL2 reporter assay, YT/Stat5-Luc/hPD1 of 0.175 nM. In addition, in assay [2], the Fold induction, STAT5-Luc IL2 reporter assay, YT/Stat5-Luc was 3.29 fold; the Fold induction, STAT5-Luc IL2 reporter assay, YT/Stat5-Luc/hIL2Rα amounted to 5.19 fold; the Fold induction, STAT5-Luc IL2 reporter assay, YT/Stat5-Luc/hIL2Rα/hPD1 was 2.88 fold; the Fold induction, STAT5-Luc IL2 reporter assay, YT/Stat5-Luc/hPD1 is 6.39 fold. Moreover, in assay [2], the Max Fold induction, STAT5-Luc IL2 reporter assay, CD25 OE/PD1 OE was 7.36 fold. Besides, in assay [3], the EC50 (M), AP1-Luc PD1 antagonistic assay is 1.26e-08 M; the EC50, PD1 competition STAT5-Luc assay, YT/STAT5-Luc/IL2Rα KO/hPD1, no antibody ('-') stood at 0.129 nM; the EC50, PD1 competition STAT5-Luc assay, YT/STAT5-Luc/IL2Rα KO/hPD1, with Comp 1 was found to be 0.306 nM; the EC50, PD1 competition STAT5-Luc assay, YT/STAT5-Luc/IL2Rα KO/hPD1, with Comp 2 was 0.281 nM. Moreover, in assay [3], the EC50, PD1 competition STAT5-Luc assay, YT/STAT5-Luc/IL2Rα KO/hPD1, with REGN2810 stood at 0.222 nM; the EC50, PD1 competition STAT5-Luc assay, YT/STAT5-Luc/IL2Rα KO/hPD1, with isotype control stood at 0.132 nM; the EC50, PD1 competition STAT5-Luc assay, YT/STAT5-Luc/hIL2Rα/hPD1, no antibody ('-') came to 0.0545 nM; the EC50, PD1 competition STAT5-Luc assay, YT/STAT5-Luc/hIL2Rα/hPD1, with Comp 1 is 0.0765 nM. Also, in assay [3], the EC50, PD1 competition STAT5-Luc assay, YT/STAT5-Luc/hIL2Rα/hPD1, with Comp 2 came to 0.0805 nM; the EC50, PD1 competition STAT5-Luc assay, YT/STAT5-Luc/hIL2Rα/hPD1, with REGN2810 stood at 0.117 nM; the EC50, PD1 competition STAT5-Luc assay, YT/STAT5-Luc/hIL2Rα/hPD1, with isotype control was 0.0709 nM; the Fold induction, AP1-Luc PD1 antagonistic assay amounted to 3.04 fold.
